To fix the notation:
B3: cpFtsY (chloroplast SRP receptor), wildtype (natural protein, UniProt O80842 41-366, looked up)
chain: CSAGPSGFFTRLGRLIKEKAKSDVEKVFSGFSKTRENLAVIDELLLFWNLAETDRVLDELEEALLVSDFGPKITVRIVERLREDIMSGKLKSGSEIKDALKESVLEMLAKKNSKTELQLGFRKPAVIMIVGVNGGGKTTSLGKLAHRLKNEGTKVLMAAGDTFRAAASDQLEIWAERTGCEIVVAEGDKAKAATVLSKAVKRGKEEGYDVVLCDTSGRLHTNYSLMEELIACKKAVGKIVSGAPNEILLVLDGNTGLNMLPQAREFNEVVGITGLILTKLDGSARGGCVVSVVEELGIPVKFIGVGEAVEDLQPFDPEAFVNAIFS

The target in experiment [1] is B3. The experiment is described as follows: cell-based or functional assay.
Experiment [2] deals with B3. In words: GTPase inhibition assay.
In experiment [3] the target is B3. The experiment is described as follows: GTPase inhibition assay. The source holds these as a separate data set.
Experiment [4] has as its target T1, cpSRP54 (chloroplast SRP54), wildtype (Arabidopsis thaliana, UniProt P37107 76-564).
T1 sequence (looked up): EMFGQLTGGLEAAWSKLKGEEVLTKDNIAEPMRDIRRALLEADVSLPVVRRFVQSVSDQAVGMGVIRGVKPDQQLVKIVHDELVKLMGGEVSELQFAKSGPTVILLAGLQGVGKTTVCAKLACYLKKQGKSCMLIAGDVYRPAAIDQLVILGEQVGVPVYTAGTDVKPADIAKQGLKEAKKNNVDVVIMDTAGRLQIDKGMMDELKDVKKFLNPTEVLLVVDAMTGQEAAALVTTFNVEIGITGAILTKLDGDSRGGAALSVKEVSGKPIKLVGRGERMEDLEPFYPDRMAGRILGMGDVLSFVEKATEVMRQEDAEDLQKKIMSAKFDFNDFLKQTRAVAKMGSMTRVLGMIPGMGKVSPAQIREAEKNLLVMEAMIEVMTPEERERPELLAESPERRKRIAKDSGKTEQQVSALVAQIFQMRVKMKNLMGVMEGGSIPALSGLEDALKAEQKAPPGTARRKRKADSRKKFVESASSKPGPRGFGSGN
The experiment is described as follows: cell-based or functional assay.

The target of experiment [5] is T1, cpSRP54 (chloroplast SRP54), wildtype. The experiment is described as follows: GTPase inhibition assay.
The target is the same in experiment [6]. The experiment is described as follows: GTPase inhibition assay. The source holds these as a separate data set.

Like-named read-outs stand apart in the source and are kept apart here. Bounds are passed on as bounds.

This is an account of results in publication PMC6309729 (Biochemistry, 2011).

B1: cpSRP54(A143L) (natural protein)
chain: MFGQLTGGLEAAWSKLKGEEVLTKDNIAEPMRDIRRALLEADVSLPVVRRFVQSVSDQAVGMGVIRGVKPDQQLVKIVHDELVKLMGGEVSELQFAKSGPTVILLAGLQGVGKTTVCAKLACYLKKQGKSCMLIAGDVYRPALIDQLVILGEQVGVPVYTAGTDVKPADIAKQGLKEAKKNNVDVVIMDTAGRLQIDKGMMDELKDVKKFLNPTEVLLVVDAMTGQEAAALVTTFNVEIGITGAILTKLDGDSRGGAALSVKEVSGKPIKLVGRGERMEDLEPFYPDRMAGRILGMGDVLSFVEKATEVMRQEDAEDLQKKIMSAKFDFNDFLKQTRAVAKMGSMTRVLGMIPGMGKVSPAQIREAEKNLLVMEAMIEVMTPEERERPELLAESPERRKRIAKDSGKTEQQVSALVAQIFQMRVKMKNLMGVMEGGSIPALSGLEDALKAEQKAPPGTARRKRKADSRKKFVESASSKPGPRGFGSGN
modifications: GTP/GMPPNP-Mg2+ state. Paper numbering + 76 = precursor (Met77 = 1, taken as the NdeI start)
B1: in experiment [1], the “kcat/Km of the reciprocally stimulated GTPase reaction” value (“kcat/Km” below) is 200 M⁻¹ s⁻¹. The same molecule returned a Ki in experiment [2] above 40 µM.

B2: cpSRP54(A143W) (natural protein)
chain: MFGQLTGGLEAAWSKLKGEEVLTKDNIAEPMRDIRRALLEADVSLPVVRRFVQSVSDQAVGMGVIRGVKPDQQLVKIVHDELVKLMGGEVSELQFAKSGPTVILLAGLQGVGKTTVCAKLACYLKKQGKSCMLIAGDVYRPAWIDQLVILGEQVGVPVYTAGTDVKPADIAKQGLKEAKKNNVDVVIMDTAGRLQIDKGMMDELKDVKKFLNPTEVLLVVDAMTGQEAAALVTTFNVEIGITGAILTKLDGDSRGGAALSVKEVSGKPIKLVGRGERMEDLEPFYPDRMAGRILGMGDVLSFVEKATEVMRQEDAEDLQKKIMSAKFDFNDFLKQTRAVAKMGSMTRVLGMIPGMGKVSPAQIREAEKNLLVMEAMIEVMTPEERERPELLAESPERRKRIAKDSGKTEQQVSALVAQIFQMRVKMKNLMGVMEGGSIPALSGLEDALKAEQKAPPGTARRKRKADSRKKFVESASSKPGPRGFGSGN
modifications: GTP/GMPPNP-Mg2+ state. Paper numbering + 76 = precursor
Regarding B2, in experiment [1], the “kcat/Km” value was determined as 617 M⁻¹ s⁻¹. The inhibition constant Ki in experiment [3] was above 50 µM; in experiment [2] it was above 40 µM.

In the case of B3, the “kcat/Km” value in experiment [4] is 300000 M⁻¹ s⁻¹.

B4: cpFtsY(A169W) (natural protein)
chain: CSAGPSGFFTRLGRLIKEKAKSDVEKVFSGFSKTRENLAVIDELLLFWNLAETDRVLDELEEALLVSDFGPKITVRIVERLREDIMSGKLKSGSEIKDALKESVLEMLAKKNSKTELQLGFRKPAVIMIVGVNGGGKTTSLGKLAHRLKNEGTKVLMAAGDTFRAAWSDQLEIWAERTGCEIVVAEGDKAKAATVLSKAVKRGKEEGYDVVLCDTSGRLHTNYSLMEELIACKKAVGKIVSGAPNEILLVLDGNTGLNMLPQAREFNEVVGITGLILTKLDGSARGGCVVSVVEELGIPVKFIGVGEAVEDLQPFDPEAFVNAIFS
modifications: GTP/GMPPNP-Mg2+ state. Paper numbering + 38 = precursor
With B4, in experiment [4], the “kcat/Km” value was found to be 467 M⁻¹ s⁻¹. The Ki in experiment [5] was above 50 µM; in experiment [6], above 40 µM.

B5: cpFtsY(A169L) (natural protein)
chain: CSAGPSGFFTRLGRLIKEKAKSDVEKVFSGFSKTRENLAVIDELLLFWNLAETDRVLDELEEALLVSDFGPKITVRIVERLREDIMSGKLKSGSEIKDALKESVLEMLAKKNSKTELQLGFRKPAVIMIVGVNGGGKTTSLGKLAHRLKNEGTKVLMAAGDTFRAALSDQLEIWAERTGCEIVVAEGDKAKAATVLSKAVKRGKEEGYDVVLCDTSGRLHTNYSLMEELIACKKAVGKIVSGAPNEILLVLDGNTGLNMLPQAREFNEVVGITGLILTKLDGSARGGCVVSVVEELGIPVKFIGVGEAVEDLQPFDPEAFVNAIFS
modifications: GTP/GMPPNP-Mg2+ state. Paper numbering + 38 = precursor (motif D163-x-F165-R166-A167-A168-A169), anchored on the named residues
As to B5, the “kcat/Km” value in experiment [4] is 517 M⁻¹ s⁻¹. In experiment [6], this molecule had a Ki above 40 µM.

Broadly, the Ki is a measure of affinity in units of concentration, obtained from inhibition or displacement.
